Earlier results in patent publication US20040047891A1, “Systems devices and methods for intrabody targeted delivery and reloading of therapeutic agents” (priority 2003, published 2004).
Like-named read-outs stand apart in the source and are kept apart here.

Columns and labels:
ET-A receptor = molecular target: T1, ET-A receptor (Homo sapiens, UniProt P25101)
T1 sequence (P25101 21-427): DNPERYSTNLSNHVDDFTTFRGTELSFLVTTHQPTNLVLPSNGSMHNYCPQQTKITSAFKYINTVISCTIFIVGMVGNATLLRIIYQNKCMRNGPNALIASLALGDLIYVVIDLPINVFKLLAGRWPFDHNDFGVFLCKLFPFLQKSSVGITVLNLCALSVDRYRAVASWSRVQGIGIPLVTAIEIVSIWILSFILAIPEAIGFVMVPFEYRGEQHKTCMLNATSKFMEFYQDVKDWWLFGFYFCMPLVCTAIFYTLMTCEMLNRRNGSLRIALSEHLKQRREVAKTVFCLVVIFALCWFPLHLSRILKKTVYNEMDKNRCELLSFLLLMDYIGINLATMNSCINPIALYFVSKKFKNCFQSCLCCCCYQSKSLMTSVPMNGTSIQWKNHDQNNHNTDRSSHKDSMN

Molecule | Koff (pH 2) | Koff (pH 3) | Koff (pH 5) | Koff (pH 7) | Time to dissociate from the ET-A receptor (ET-A receptor) | Koff (pH 1.7) | Koff (pH 9.2) | Koff (pH 10.5)
Avidin: biotin-binding protein, source chicken egg white; member of the biotin-avidin binding pair | 200 sec^−1 · 10^7 | 9 sec^−1 · 10^7 | 0.9 sec^−1 · 10^7 | 0.4 sec^−1 · 10^7 | – | – | – | –
CCCCN(CCCC)C(=O)CN1C[C@H](c2ccc3c(c2)OCO3)[C@@H](C(=O)O)[C@@H]1c1ccc(OC)cc1 [ABT-627] | – | – | – | – | ≤ 2 h | – | – | –
Streptavidin: avidin derivative, source fermentation, no carbohydrates | – | 19 sec^−1 · 10^7 | 8.7 sec^−1 · 10^7 | 28 sec^−1 · 10^7 | – | 35 sec^−1 · 10^7 | 64 sec^−1 · 10^7 | 100 sec^−1 · 10^7
